# Like-named read-outs stand apart in the source and are kept apart here.
# Key:
# [1] = target: T1, His68 (UniProt position 68, KESTLHLVLRL); experiment: NMR; settings: 23 °C; Not stated explicitly for Ub^WT; described as 'a similar pH titration' to that of pUb in citric acid-phosphate buffer; Free wild-type ubiquitin, folded
# [2] = target: T1, His68; settings: Ubiquitin; form not further specified (literature value); cited from earlier work
substance,measurement,setting,value
Ubiquitin (Ub^WT) (Homo sapiens (inferred; the article does not state the species of the ubiquitin)),pKa,[1],5.7
same,pKa,[2],5.5

# From article PMC5805711
